Results reported in publication doi:10.1101/2023.07.08.548186 (bioRxiv, 2023).

T1: ATG9A with N-terminal 6xHis and Twin-StrepII tags (human), Q7Z3C6
T1 chain: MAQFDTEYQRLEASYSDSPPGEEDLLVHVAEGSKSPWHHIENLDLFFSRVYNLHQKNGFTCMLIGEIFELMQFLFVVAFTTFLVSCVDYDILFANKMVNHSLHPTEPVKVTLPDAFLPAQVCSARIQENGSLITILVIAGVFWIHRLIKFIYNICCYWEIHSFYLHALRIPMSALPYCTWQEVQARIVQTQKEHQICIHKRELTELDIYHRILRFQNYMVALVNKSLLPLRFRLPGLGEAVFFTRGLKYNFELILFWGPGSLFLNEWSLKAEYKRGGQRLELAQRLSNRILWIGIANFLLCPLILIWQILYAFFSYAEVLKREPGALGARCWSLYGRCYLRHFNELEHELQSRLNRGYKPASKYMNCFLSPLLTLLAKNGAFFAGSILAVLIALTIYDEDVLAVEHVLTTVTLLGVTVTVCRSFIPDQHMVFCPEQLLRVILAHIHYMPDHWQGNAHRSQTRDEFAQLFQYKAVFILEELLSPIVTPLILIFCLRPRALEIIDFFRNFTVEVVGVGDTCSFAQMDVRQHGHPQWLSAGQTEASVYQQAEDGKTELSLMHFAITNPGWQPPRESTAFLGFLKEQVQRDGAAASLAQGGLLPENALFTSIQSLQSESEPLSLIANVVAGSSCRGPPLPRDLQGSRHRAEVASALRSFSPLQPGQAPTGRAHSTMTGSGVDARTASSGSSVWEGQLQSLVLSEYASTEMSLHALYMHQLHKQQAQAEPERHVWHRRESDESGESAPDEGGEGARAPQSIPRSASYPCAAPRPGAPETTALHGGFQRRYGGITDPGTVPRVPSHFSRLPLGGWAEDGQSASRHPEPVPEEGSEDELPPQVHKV

T2: ATG9A with N-terminal 6xHis and Twin-StrepII tags (human, UniProt Q7Z3C6 1-839)
T2 sequence: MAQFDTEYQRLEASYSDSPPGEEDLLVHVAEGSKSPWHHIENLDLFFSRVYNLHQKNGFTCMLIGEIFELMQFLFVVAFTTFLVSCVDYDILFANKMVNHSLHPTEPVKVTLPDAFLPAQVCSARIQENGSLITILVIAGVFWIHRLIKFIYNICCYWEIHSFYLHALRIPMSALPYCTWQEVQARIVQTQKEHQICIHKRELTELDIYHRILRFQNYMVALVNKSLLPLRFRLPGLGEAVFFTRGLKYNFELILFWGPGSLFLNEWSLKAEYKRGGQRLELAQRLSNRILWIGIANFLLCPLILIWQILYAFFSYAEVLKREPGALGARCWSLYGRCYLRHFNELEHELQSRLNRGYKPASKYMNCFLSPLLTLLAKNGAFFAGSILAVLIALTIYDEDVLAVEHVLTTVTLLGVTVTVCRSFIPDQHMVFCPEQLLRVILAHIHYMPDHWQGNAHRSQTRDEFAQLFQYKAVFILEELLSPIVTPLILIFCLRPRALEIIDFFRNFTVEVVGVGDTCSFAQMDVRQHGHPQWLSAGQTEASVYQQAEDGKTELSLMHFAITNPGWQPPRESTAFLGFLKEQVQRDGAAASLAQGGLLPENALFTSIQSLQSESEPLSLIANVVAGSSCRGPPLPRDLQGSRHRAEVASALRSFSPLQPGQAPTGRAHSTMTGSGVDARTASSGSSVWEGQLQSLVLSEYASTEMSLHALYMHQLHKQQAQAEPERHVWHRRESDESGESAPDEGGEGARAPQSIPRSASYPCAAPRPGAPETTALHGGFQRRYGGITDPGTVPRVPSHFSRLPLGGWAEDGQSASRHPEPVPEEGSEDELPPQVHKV


Legend:
[1] = molecular target: T1, ATG9A with N-terminal 6xHis and …; experiment: cryo-EM structure; conditions: remark: other sources report otherwise
[2] = molecular target: T2, ATG9A with N-terminal 6xHis and …; experiment: cryo-EM structure

Binder | stoichiometry N [1] | stoichiometry N [2] [ATG2A per ATG9A trimer]
ATG9A with N-terminal 6xHis and Twin-StrepII tags, Q7Z3C6 1-839 (natural protein) MAQFDTEYQRLEASYSDSPPGEEDLLVHVAEGSKSPWHHIENLDLFFSRVYNLHQKNGFTCMLIGEIFELMQFLFVVAFTTFLVSCVDYDILFANKMVNHSLHPTEPVKVTLPDAFLPAQVCSARIQENGSLITILVIAGVFWIHRLIKFIYNICCYWEIHSFYLHALRIPMSALPYCTWQEVQARIVQTQKEHQICIHKRELTELDIYHRILRFQNYMVALVNKSLLPLRFRLPGLGEAVFFTRGLKYNFELILFWGPGSLFLNEWSLKAEYKRGGQRLELAQRLSNRILWIGIANFLLCPLILIWQILYAFFSYAEVLKREPGALGARCWSLYGRCYLRHFNELEHELQSRLNRGYKPASKYMNCFLSPLLTLLAKNGAFFAGSILAVLIALTIYDEDVLAVEHVLTTVTLLGVTVTVCRSFIPDQHMVFCPEQLLRVILAHIHYMPDHWQGNAHRSQTRDEFAQLFQYKAVFILEELLSPIVTPLILIFCLRPRALEIIDFFRNFTVEVVGVGDTCSFAQMDVRQHGHPQWLSAGQTEASVYQQAEDGKTELSLMHFAITNPGWQPPRESTAFLGFLKEQVQRDGAAASLAQGGLLPENALFTSIQSLQSESEPLSLIANVVAGSSCRGPPLPRDLQGSRHRAEVASALRSFSPLQPGQAPTGRAHSTMTGSGVDARTASSGSSVWEGQLQSLVLSEYASTEMSLHALYMHQLHKQQAQAEPERHVWHRRESDESGESAPDEGGEGARAPQSIPRSASYPCAAPRPGAPETTALHGGFQRRYGGITDPGTVPRVPSHFSRLPLGGWAEDGQSASRHPEPVPEEGSEDELPPQVHKV | 3 | 
human ATG2A, full length (natural protein) MSRWLWPWSNCVKERVCRYLLHHYLGHFFQEHLSLDQLSLDLYKGSVALRDIHLEIWSVNEVLESMESPLELVEGFVGSIEVAVPWAALLTDHCTVRVSGLQLTLQPRRGPAPGAADSQSWASCMTTSLQLAQECLRDGLPEPSEPPQPLEGLEMFAQTIETVLRRIKVTFLDTVVRVEHSPGDGERGVAVEVRVQRLEYCDEAVRDPSQAPPVDVHQPPAFLHKLLQLAGVRLHYEELPAQEEPPEPPLQIGSCSGYMELMVKLKQNEAFPGPKLEVAGQLGSLHLLLTPRQLQQLQELLSAVSLTDHEGLADKLNKSRPLGAEDLWLIEQDLNQQLQAGAVAEPLSPDPLTNPLLNLDNTDLFFSMAGLTSSVASALSELSLSDVDLASSVRSDMASRRLSAQAHPAGKMAPNPLLDTMRPDSLLKMTLGGVTLTLLQTSAPSSGPPDLATHFFTEFDATKDGPFGSRDFHHLRPRFQRACPCSHVRLTGTAVQLSWELRTGSRGRRTTSMEVHFGQLEVLECLWPRGTSEPEYTEILTFPGTLGSQASARPCAHLRHTQILRRVPKSRPRRSVACHCHSELALDLANFQADVELGALDRLAALLRLATVPAEPPAGLLTEPLPAMEQQTVFRLSAPRATLRLRFPIADLRPEPDPWAGQAVRAEQLRLELSEPQFRSELSSGPGPPVPTHLELTCSDLHGIYEDGGKPPVPCLRVSKALDPKSTGRKYFLPQVVVTVNPQSSSTQWEVAPEKGEELELSVESPCELREPEPSPFSSKRTMYETEEMVIPGDPEEMRTFQSRTLALSRCSLEVILPSVHIFLPSKEVYESIYNRINNDLLMWEPADLLPTPDPAAQPSGFPGPSGFWHDSFKMCKSAFKLANCFDLTPDSDSDDEDAHFFSVGASGGPQAAAPEAPSLHLQSTFSTLVTVLKGRITALCETKDEGGKRLEAVHGELVLDMEHGTLFSVSQYCGQPGLGYFCLEAEKATLYHRAAVDDYPLPSHLDLPSFAPPAQLAPTIYPSEEGVTERGASGRKGQGRGPHMLSTAVRIHLDPHKNVKEFLVTLRLHKATLRHYMALPEQSWHSQLLEFLDVLDDPVLGYLPPTVITILHTHLFSCSVDYRPLYLPVRVLITAETFTLSSNIIMDTSTFLLRFILDDSALYLSDKCEVETLDLRRDYVCVLDVDLLELVIKTWKGSTEGKLSQPLFELRCSNNVVHVHSCADSCALLVNLLQYVMSTGDLHPPPRPPSPTEIAGQKLSESPASLPSCPPVETALINQRDLADALLDTERSLRELAQPSGGHLPQASPISVYLFPGERSGAPPPSPPVGGPAGSLGSCSEEKEDEREEEGDGDTLDSDEFCILDAPGLGIPPRDGEPVVTQLHPGPIVVRDGYFSRPIGSTDLLRAPAHFPVPSTRVVLREVSLVWHLYGGRDFGPHPGHRARTGLSGPRSSPSRCSGPNRPQNSWRTQGGSGRQHHVLMEIQLSKVSFQHEVYPAEPATGPAAPSQELEERPLSRQVFIVQELEVRDRLASSQINKFLYLHTSERMPRRAHSNMLTIKALHVAPTTNLGGPECCLRVSLMPLRLNVDQDALFFLKDFFTSLVAGINPVVPGETSAEARPETRAQPSSPLEGQAEGVETTGSQEAPGGGHSPSPPDQQPIYFREFRFTSEVPIWLDYHGKHVTMDQVGTFAGLLIGLAQLNCSELKLKRLCCRHGLLGVDKVLGYALNEWLQDIRKNQLPGLLGGVGPMHSVVQLFQGFRDLLWLPIEQYRKDGRLMRGLQRGAASFGSSTASAALELSNRLVQAIQATAETVYDILSPAAPVSRSLQDKRSARRLRRGQQPADLREGVAKAYDTVREGILDTAQTICDVASRGHEQKGLTGAVGGVIRQLPPTVVKPLILATEATSSLLGGMRNQIVPDAHKDHALKWRSDSAQD |  | 1
